{"source": "patent US20130287781A1", "about": "(GlaxoSmithKline, published 2013)", "binders": {"B1": {"name": "Hc(G95M)Lc (antibody, human IgG1, kappa, V domains shown)", "VH": "QVQLQQPGTELVKPGASVKLSCKASGYTFTSYWMHWVKQRPGQGLEWIGNINPSNGGTNYNEKFKSKATLTVDKSSSTAYMQLSSLTSEDSAVYYCELMQGYWGQGTLVTVSS", "VL": "DIVITQDELSNPVTSGESVSISCRSSKSLLYKDGKTYLNWFLQRPGQSPQLLIYLMSTRASGVSDRFSGSGSGTDFTLEISRVKAEDVGVYYCQQLVEYPLTFGAGTKLELKR", "notes": "also called HcLc containing the G95M mutation of the CDR H3"}, "B2": {"name": "H6L13 (H6FL L13FL) (antibody, human IgG1, kappa, V domains shown)", "VH": "QVQLVQSGAEVKKPGASVKVSCKASGYTFTSYWMHWVRQAPGQGLEWIGNINPSNGGTNYNEKFKSRATMTRDTSTSTAYMELSSLRSEDTAVYYCELGQGYWGQGTLVTVSS", "VL": "DIVMTQSPLSLPVTLGQPASISCRSSKSLLYKDGKTYLNWFQQRPGQSPQLLIYLMSTRASGVPDRFSGGGSGTDFTLKISRVEAEDVGVYYCQQLVEYPLTFGQGTKLEIKR", "notes": "Human IgG1 (L235A, G237A, EU Index) / kappa; also called H6L13 with VH CDR3 GQGY"}, "B3": {"name": "H100L100 (antibody, V domains shown)", "VH": "B2 VH with G101S", "VL": "DIVMTQSPLSLPVTLGQPASISCRSSKSLLYKDGKTYLNWFRQRPGQSPQLLIYLMSTRASGVPDRFSGGGSGTDFTLKISRVEAEDVGVYYCQQLVEYPLTFGQGTKLEIK", "notes": "Full length versions of the heavy and light chains were expressed in CHO cells; H100 is H6 VH with G101S (Kabat), L100 is L13 VL with Q37R (Kabat); also called G101S/Q37R variant"}, "B4": {"name": "H6L13 variant with VH CDR3 GQNY (antibody, human IgG1, kappa, V domains shown)", "VH": "B2 VH with G101N", "VL": "B2 VL", "notes": "Single point variant of H6FL with L13FL"}, "B5": {"name": "H100L101 (antibody, V domains shown)", "VH": "B2 VH with G101S", "VL": "B3 VL with R42Q, Q50R", "notes": "Full length version expressed in CHO cells; L101 is L13 VL with Q45R (Kabat)"}, "B6": {"name": "H1L11 (antibody, human IgG1, kappa, V domains shown)", "VH": "B2 VH with I48M, A68V, A79V", "VL": "B2 VL with M4I", "notes": "CDR H3 GQGY; also called humanised 2A10 variant H1L11 of WO05/061544"}, "B7": {"name": "H6L13 variant with VH CDR3 GDGY (antibody, human IgG1, kappa, V domains shown)", "VH": "B2 VH with Q100D", "VL": "B2 VL", "notes": "as for B4"}, "B8": {"name": "H6L13 variant with VH CDR3 GQGW (antibody, human IgG1, kappa, V domains shown)", "VH": "B2 VH with Y102W", "VL": "B2 VL", "notes": "as for B4"}, "B9": {"name": "H6L13 variant with VH CDR3 GSGY (antibody, human IgG1, kappa, V domains shown)", "VH": "B2 VH with Q100S", "VL": "B2 VL", "notes": "as for B4"}}, "key": {"[1]": {"target": "T1, H28L16", "T1 construct": "IgG1 (L235A, G237A) / kappa; CAMPATH-1H signal (1-19) left out; also called H28FL L16FL; NOGO H28L16", "T1 sequence (light, as listed by the source)": "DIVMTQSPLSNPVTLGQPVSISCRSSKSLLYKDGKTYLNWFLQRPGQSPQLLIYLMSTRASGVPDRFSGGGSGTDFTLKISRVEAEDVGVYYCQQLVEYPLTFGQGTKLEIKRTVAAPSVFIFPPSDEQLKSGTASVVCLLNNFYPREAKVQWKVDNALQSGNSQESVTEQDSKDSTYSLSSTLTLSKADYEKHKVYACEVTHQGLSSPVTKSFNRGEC", "assay": "competition ELISA: H28L16 captured on anti-human IgG, peptide pre-mixed with GST-human NOGO-A56 (1 ug/ml), bound NOGO detected with anti-GST-HRP", "method": "The plates were rinsed 3 times with TBS containing 0.05% Tween (TBST) then blocked with 1% BSA in TBST at room temperature for 1 hour. […] The plates were washed 3 times with TBST. Peptides (from 0 to 100 g/ml) and GST-human NOGO-A56 at a concentration of 1 ug/ml (diluted in 1% BSA in TBST) were pre-mixed prior to addition into the wells and incubated at room temperature for 1 hour. The plates were washed 3 times with TBST then incubated for 1 hour with rabbit anti-GST peroxidase conjugate (Sigma, #A7340, 1:2000, diluted in 1% BSA in TBST) for 1 hour. The plates were washed 3 times with TBST and then incubated with 50 l OPD peroxidase substrate (Sigma) per well for 10 minutes. The colour reaction was stopped by the addition of 25 l concentrated H₂SO₄. Absorbance at 490 nm was measured using a plate reader."}, "[2]": {"target": "T2, GST-human NOGO-A56 (human)", "T2 construct": "Expressed in E. coli BL21 from pGEX-6P1 and purified on glutathione-sepharose; the GST tag is part of the protein in the assays; also called GST-Nogo-A 5+6; GST Nogo-A 5 + 6", "T2 sequence (chain, as listed by the source limits assumed)": "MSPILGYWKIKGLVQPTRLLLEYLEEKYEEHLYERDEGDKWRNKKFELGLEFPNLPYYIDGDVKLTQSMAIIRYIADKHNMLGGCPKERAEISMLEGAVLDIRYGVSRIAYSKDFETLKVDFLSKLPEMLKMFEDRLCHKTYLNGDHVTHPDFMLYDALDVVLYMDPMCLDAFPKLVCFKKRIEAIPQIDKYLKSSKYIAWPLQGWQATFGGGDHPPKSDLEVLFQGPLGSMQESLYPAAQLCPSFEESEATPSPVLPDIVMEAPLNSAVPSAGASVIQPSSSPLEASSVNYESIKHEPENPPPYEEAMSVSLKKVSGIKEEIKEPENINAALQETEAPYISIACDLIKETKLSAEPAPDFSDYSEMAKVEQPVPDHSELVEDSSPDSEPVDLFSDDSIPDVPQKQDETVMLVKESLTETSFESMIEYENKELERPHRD", "assay": "SPR (Biacore) off-rate ranking on GST-human NOGO-A56 chip, one experiment", "method": "(§1) GST-human NOGO-A56 was immobilised to a CM5 chip by primary amine coupling using the Biacore Wizard program designed for targeted immobilisation levels. The CM5 sensor surface was activated by passing a solution of 50 mM N-hydroxy-succinimide (NHS) and 200 mM N-ethyl-N′-dimethylaminopropyl carbonide (EDC). Then GST-human NOGO-A56 in sodium acetate buffer, pH5.0 or pH 4.5, was passed over the chip and immobilised. After immobilisation was complete any still activated esters were blocked by an injection of 1M ethanolamine hydrochloride, pH8.5.\nThe GST-human NOGO-A56 chip was prepared as for kinetic analysis. Cell supernatants where taken directly from transient transfections of CHO-K1 cells. These were passed directly over the sensor surface and the interaction measured. A mock transfected cell supernatant was used for double referencing to remove any artefacts due to the tissue culture media. All runs were referenced against a blanked sensor surface (one that had been activated and blocked as described earlier but had no addition of ligand). Analysis of binding was carried out using the BIAevaluation kinetic analysis software version 4.1."}, "[3]": {"target": "T2, GST-human NOGO-A56", "assay": "direct ELISA, GST-human NOGO-A56 coated at 1.0 mcg/ml, purified antibody, OD490", "method": "Wells were rinsed once with TBS+0.05% Tween (TBST) then incubated with 2% BSA in TBST to block non-specific binding sites at room temperature for 1 hour. Antibodies were diluted in TBST+2% BSA to 10 μg/ml and ½ dilutions made from this. Antibodies were added to wells in duplicate and incubated at room temperature for 1 hour. […] The wells were washed three times with TBST and then incubated with 100 μl OPD peroxidase substrate (Sigma) per well for 10 minutes. The colour reaction was stopped by the addition of 25 μl concentrated H₂SO₄. Optical density at 490 nm was measured using a plate reader. Background values read from wells with no antibody were subtracted."}, "[4]": {"target": "T2, GST-human NOGO-A56", "assay": "SPR (Biacore) off-rate on NOGO chip, panel of H6FL CDR H3 variants with L13FL"}, "[5]": {"target": "T2, GST-human NOGO-A56", "assay": "direct ELISA, GST-human NOGO-A56 coated at 1.0 mcg/ml, purified antibody, OD490", "remark": "listed apart in the source"}, "[6]": {"target": "T2, GST-human NOGO-A56", "assay": "SPR (Biacore), NOGO amine-coupled to CM5, antibody flowed over", "method": "as §1"}}, "note": "Changes are numbered by the printed parent chain. Numbers in names are those of the source. Read-outs that look alike come from different tables or passages of the source. Where no end group is shown, it is not given here. The star is where a group is joined. Biotin = O=C1N[C@H]2[C@H](CS[C@H]2CCCCC(=O)*)N1", "data": [{"binder": "Biotin-SGSGTPSPVLPDIVMEAPLN", "note": "[peptide 6 (biotin-SGSG-TPSPVLPDIVMEAPLN)]", "values": [{"measurement": "binding result", "setting": "[1]", "value": "binds"}]}, {"binder": "Biotin-SGSGYESIKHEPENPPPYEE", "note": "[peptide 16]", "values": [{"measurement": "binding result", "setting": "[1]", "value": "no binding (tested: about 33 mcg/ml)"}]}, {"binder": "Biotin-SGSGKHEPENPPPYEEAMSV", "note": "[peptide 17]", "values": [{"measurement": "binding result", "setting": "[1]", "value": "no binding (tested: about 33 mcg/ml)"}]}, {"binder": "Biotin-SGSGVLPDIVMEAPLNSAVP", "note": "[peptide 7 (biotin-SGSG-VLPDIVMEAPLNSAVP)]", "values": [{"measurement": "IC50 (read off the curve)", "setting": "[1]", "value": "~0.9", "unit": "µg/mL"}]}, {"binder": "B1", "values": [{"measurement": "koff", "setting": "[2]", "value": 0.000614, "unit": "s⁻¹"}]}, {"binder": "B2", "values": [{"measurement": "EC50 (read off the curve)", "setting": "[3]", "value": "~0.1", "unit": "µg/mL"}, {"measurement": "koff", "setting": "[4]", "value": 0.0198, "unit": "s⁻¹"}, {"measurement": "EC50 (read off the curve)", "setting": "[5]", "value": "~0.1", "unit": "µg/mL"}, {"measurement": "Kd", "setting": "[6]", "value": 6.97, "unit": "nM"}, {"measurement": "koff", "setting": "[6]", "value": 0.00722, "unit": "s⁻¹"}, {"measurement": "kon", "setting": "[6]", "value": "1.04e+06", "unit": "M⁻¹ s⁻¹"}, {"measurement": "koff", "setting": "[2]", "value": 0.0138, "unit": "s⁻¹"}]}, {"binder": "B3", "values": [{"measurement": "Kd", "setting": "[6]", "value": 0.396, "unit": "nM"}, {"measurement": "koff", "setting": "[6]", "value": 0.00507, "unit": "s⁻¹"}, {"measurement": "kon", "setting": "[6]", "value": "1.28e+07", "unit": "M⁻¹ s⁻¹"}]}, {"binder": "B4", "values": [{"measurement": "koff", "setting": "[4]", "value": 0.00966, "unit": "s⁻¹"}]}, {"binder": "B5", "values": [{"measurement": "Kd", "setting": "[6]", "value": 0.329, "unit": "nM"}, {"measurement": "koff", "setting": "[6]", "value": 0.00429, "unit": "s⁻¹"}, {"measurement": "kon", "setting": "[6]", "value": "1.3e+07", "unit": "M⁻¹ s⁻¹"}]}, {"binder": "B6", "values": [{"measurement": "EC50 (read off the curve)", "setting": "[5]", "value": "~0.2", "unit": "µg/mL"}]}, {"binder": "B7", "values": [{"measurement": "koff", "setting": "[4]", "value": 0.0212, "unit": "s⁻¹"}]}, {"binder": "B8", "values": [{"measurement": "koff", "setting": "[4]", "value": 0.0216, "unit": "s⁻¹"}]}, {"binder": "B9", "values": [{"measurement": "koff", "setting": "[4]", "value": 0.0207, "unit": "s⁻¹"}]}]}
